Experimental data as given in PMC12349009 (2025).

Legend:
[1] = target: T1, soluble recombinant NKp65 ectodomain with proline at position 131 (NKp65-Pro131) (human, UniProt D3W0D1 63-207, biotin on the N-terminal BirA tag (enzymatic, BirA ligase)); test: SPR; KD1 of bivalent fit, multi-cycle kinetics
T1 chain: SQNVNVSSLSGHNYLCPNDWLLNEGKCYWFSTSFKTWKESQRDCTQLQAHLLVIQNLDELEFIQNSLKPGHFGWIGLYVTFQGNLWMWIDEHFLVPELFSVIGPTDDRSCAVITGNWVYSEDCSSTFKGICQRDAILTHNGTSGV

[2] = target: T2, soluble recombinant NKp65 ectodomain with threonine at position 131 (NKp65-Thr131) (human, UniProt D3W0D1 63-207, substitution of proline by threonine at amino acid position 131, biotin on the N-terminal BirA tag (enzymatic, BirA ligase)); test: SPR; KD1 of bivalent fit, multi-cycle kinetics
T2 sequence: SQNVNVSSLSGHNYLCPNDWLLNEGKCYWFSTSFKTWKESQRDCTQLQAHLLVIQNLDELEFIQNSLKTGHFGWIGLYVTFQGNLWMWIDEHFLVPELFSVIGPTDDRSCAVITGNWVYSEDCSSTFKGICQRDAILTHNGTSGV

[3] = target: soluble recombinant NKp65 ectodomain with proline at position 131 (NKp65-Pro131) (human) (UniProt D3W0D1); test: SPR; mean of KD1 (bivalent model) from at least three measurements, protein produced independently twice, 2 different chip lots; biotinylated NKp65 immobilised on a streptavidin chip, sKACL as analyte; which runs were pooled is not told
[4] = target: soluble recombinant NKp65 ectodomain with threonine at position 131 (NKp65-Thr131) (human) (UniProt D3W0D1); test: as above
[5] = target: soluble recombinant NKp65 ectodomain with proline at position 131 (NKp65-Pro131) (human) (UniProt D3W0D1); test: SPR; single-cycle kinetics, Biacore X100; 73.4 ± 12.4 RU biotinylated NKp65 immobilised on a streptavidin chip (Sensor Chip SA), pulsed 120 s with sKACL 0.247-20 nM, flow 30 µl/min, final dissociation 600 s; bivalent binding model
[6] = target: soluble recombinant NKp65 ectodomain with threonine at position 131 (NKp65-Thr131) (human) (UniProt D3W0D1); test: as above

Kd [1]: 13.6 nM
Kd [2]: 57.1 nM
KD1 (bivalent fit) [3]: 8.2 nM
KD1 (bivalent fit) [4]: 35 nM
Kd [5]: 2.6 nM
Kd [6]: 20.3 nM
B1: recombinant KACL ectodomain (sKACL) (ligand)
chain: WSKHAKPVACSGDWLGVRDKCFYFSDDTRNWTASKIFCSLQKAELAQIDTQEDMEFLKRYAGTDMHWIGLSRKQGDSWKWTNGTTFNGWFEIIGNGSFAFLSADGVHSSRGFIDIKWICSKPKYFL
